# According to patent publication US20110183358A1 (published 2011):
# Square brackets hold non-standard residues; d marks the D form. Ends that are not written are not given here. * marks the point of attachment. Phe(4-Cl) = N[C@@H](Cc1ccc(Cl)cc1)C(=O)O; 2Nal = N[C@@H](Cc1ccc2ccccc2c1)C(=O)O; d2Nal = N[C@H](Cc1ccc2ccccc2c1)C(=O)O; Fmoc = O=C(OCC1c2ccccc2-c2ccccc21)*; 2Thi = N[C@@H](Cc1cccs1)C(=O)O; Cha = N[C@@H](CC1CCCCC1)C(=O)O; d2Thi = N[C@H](Cc1cccs1)C(=O)O; dCha = N[C@H](CC1CCCCC1)C(=O)O
# Legend:
# [1] = molecular target: GST-BIR3RING (human) (UniProt P98170); test: fluorescence polarization; 400 nM rhodamine-SMAC, GST-BIR3RING 0.02 to 6 µM
# [2] = molecular target: glutathione-S-transferase-BIR2 fusion protein (GST-BIR2) (human) (UniProt P98170); test: fluorescence polarization; 400 nM rhodamine-SMAC, GST-BIR2 0.05 to 20 µM
# [3] = molecular target: T1, GST-XIAP (human, UniProt P98170 1-497); test: cell-based or functional assay
# [4] = molecular target: full length XIAP (human, UniProt P98170 1-497); test: cell-based or functional assay
# [5] = molecular target: T1, GST-XIAP; test: cell-based or functional assay; remark: listed apart in the source
# full length XIAP, sequence (P98170 whole entry): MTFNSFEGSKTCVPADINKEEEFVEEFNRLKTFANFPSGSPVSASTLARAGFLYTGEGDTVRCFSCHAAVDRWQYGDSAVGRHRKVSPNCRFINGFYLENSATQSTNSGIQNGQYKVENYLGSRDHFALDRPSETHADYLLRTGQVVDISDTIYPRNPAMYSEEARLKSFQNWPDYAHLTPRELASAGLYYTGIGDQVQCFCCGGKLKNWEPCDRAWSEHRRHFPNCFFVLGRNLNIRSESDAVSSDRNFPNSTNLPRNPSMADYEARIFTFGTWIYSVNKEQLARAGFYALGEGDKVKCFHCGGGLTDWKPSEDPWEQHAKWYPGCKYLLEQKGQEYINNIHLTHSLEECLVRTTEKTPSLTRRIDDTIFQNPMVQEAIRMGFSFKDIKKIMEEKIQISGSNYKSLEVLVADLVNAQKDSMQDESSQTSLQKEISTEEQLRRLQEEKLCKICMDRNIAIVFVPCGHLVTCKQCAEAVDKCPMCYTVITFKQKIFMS
# T1 sequence (P98170 whole entry): as above
# glutathione-S-transferase-BIR2 fusion protein (GST-BIR2) (human), sequence (P98170 124-240): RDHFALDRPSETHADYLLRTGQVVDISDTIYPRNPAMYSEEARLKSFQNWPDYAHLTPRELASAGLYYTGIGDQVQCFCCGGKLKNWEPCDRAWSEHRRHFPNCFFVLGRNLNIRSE
# GST-BIR3RING (human), sequence (P98170 243-497): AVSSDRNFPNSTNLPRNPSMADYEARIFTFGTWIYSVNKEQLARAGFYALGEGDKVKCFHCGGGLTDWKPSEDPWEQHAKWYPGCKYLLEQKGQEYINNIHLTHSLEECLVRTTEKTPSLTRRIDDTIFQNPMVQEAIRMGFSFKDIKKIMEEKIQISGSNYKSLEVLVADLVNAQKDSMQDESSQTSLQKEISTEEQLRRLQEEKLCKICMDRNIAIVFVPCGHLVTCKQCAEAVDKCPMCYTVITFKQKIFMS
molecule,measurement,setting,value
rhodamine labeled SMAC (rhodamine-SMAC) (peptide),Kd,[1],0.28 µM
same,Kd,[2],20 µM
H-AVPIAQK-NH2 [SMAC peptide (H-Ala-Val-Pro-Ile-Ala-Gln-Lys-NH2)],Vmax(mix + casp3 + XIAP)/Vmax(casp3 + XIAP),[3],3.8 ratio
[2Thi][2Nal][Phe(4-Cl)]K(Fmoc) [TPI 792-33],EC50 (amount of compound necessary to restore caspase-3 activity to 50% of Vmax),[4],24 µM
same,Relative Potency (against SMAC AVPI tetrapeptide),[4],5.2 fold
[Cha][d2Nal]W[2Thi] [1332-41],ratio of Vmax for hydrolysis of Ac-DEVD-AFC in the presence and absence of the species,[5],2.4 ratio
[2Nal][dCha]W[dW] [1352-66],ratio of Vmax for hydrolysis of Ac-DEVD-AFC in the presence and absence of the species,[5],2.4 ratio
AWW[2Thi] (not fully specified) [1332/1352-1],ratio of Vmax for hydrolysis of Ac-DEVD-AFC in the presence and absence of the species,[5],2.4 ratio
A[dW]W[2Thi] [1332/1352-47],ratio of Vmax for hydrolysis of Ac-DEVD-AFC in the presence and absence of the species,[5],2.4 ratio
[2Thi][2Nal][dK](Fmoc)K(Fmoc) [TPI 792-35],EC50 (amount of compound necessary to restore caspase-3 activity to 50% of Vmax),[4],51 µM
same,Relative Potency (against SMAC AVPI tetrapeptide),[4],2.5 fold
A[dW]W[2Thi] [1352-6],ratio of Vmax for hydrolysis of Ac-DEVD-AFC in the presence and absence of the species,[5],2.4 ratio
[2Nal][d2Thi][dF][dW] [1352-72],ratio of Vmax for hydrolysis of Ac-DEVD-AFC in the presence and absence of the species,[5],2.4 ratio
